Laboratory results from patent WO2016059602A2 (dated 2016).
Each block holds one binder with its values, some of them ahead of it.

Legend:
human HER3 receptor = human HER3 receptor (human, UniProt P21860 20-1342); assay: cell-based or functional assay
[1] = target: T1, full-length human HER3 extracellular domain (ECD) (human, UniProt P21860 20-643); assay: BIACORE, antibody captured on protein A, HER3 ECD as analyte, 25 C, 1:1 model
T1 construct: also called human HER3 ECD; HER3 ECD full length
T1 sequence (P21860 20-643): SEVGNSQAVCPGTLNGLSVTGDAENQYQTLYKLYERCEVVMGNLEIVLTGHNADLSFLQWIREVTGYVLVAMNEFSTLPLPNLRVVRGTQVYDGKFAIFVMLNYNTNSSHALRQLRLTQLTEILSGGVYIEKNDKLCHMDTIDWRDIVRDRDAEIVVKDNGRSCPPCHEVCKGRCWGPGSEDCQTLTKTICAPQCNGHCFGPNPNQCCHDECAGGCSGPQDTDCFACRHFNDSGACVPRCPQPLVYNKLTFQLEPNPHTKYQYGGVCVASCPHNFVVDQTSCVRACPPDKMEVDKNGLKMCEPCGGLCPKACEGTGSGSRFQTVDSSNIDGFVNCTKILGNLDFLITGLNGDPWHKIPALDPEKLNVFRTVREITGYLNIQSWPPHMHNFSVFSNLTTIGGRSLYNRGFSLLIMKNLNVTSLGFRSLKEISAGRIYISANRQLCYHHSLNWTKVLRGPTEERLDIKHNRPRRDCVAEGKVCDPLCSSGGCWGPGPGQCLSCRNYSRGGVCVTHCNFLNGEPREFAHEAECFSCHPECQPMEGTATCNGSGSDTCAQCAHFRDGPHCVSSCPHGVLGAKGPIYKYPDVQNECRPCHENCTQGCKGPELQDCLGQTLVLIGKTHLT

[2] = target: T2, full-length rat HER3 extracellular domain (ECD) (rat, UniProt Q62799 20-643); assay: BIACORE, antibody captured on protein A, rat HER3 ECD as analyte, 25 C, 1:1 model
T2 construct: extracellular domain; also called Rat HER3 ECD
T2 sequence (Q62799 20-643): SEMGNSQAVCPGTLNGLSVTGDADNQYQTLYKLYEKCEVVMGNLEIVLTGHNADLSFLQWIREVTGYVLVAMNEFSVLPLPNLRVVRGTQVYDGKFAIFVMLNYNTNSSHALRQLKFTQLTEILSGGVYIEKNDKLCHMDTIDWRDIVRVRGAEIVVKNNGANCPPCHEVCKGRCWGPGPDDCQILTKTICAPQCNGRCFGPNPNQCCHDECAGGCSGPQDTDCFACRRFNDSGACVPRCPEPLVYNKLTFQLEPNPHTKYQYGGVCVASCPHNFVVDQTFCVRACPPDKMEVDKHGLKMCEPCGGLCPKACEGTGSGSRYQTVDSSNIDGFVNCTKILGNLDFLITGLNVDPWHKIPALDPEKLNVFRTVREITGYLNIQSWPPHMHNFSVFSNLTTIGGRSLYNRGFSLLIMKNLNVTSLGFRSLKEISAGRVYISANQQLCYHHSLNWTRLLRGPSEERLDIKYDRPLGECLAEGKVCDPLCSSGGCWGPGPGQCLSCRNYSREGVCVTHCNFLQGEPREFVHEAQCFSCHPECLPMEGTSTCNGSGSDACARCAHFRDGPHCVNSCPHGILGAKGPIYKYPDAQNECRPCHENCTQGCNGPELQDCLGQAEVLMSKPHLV

Sequence of human HER3 receptor (P21860 20-1342 limits assumed): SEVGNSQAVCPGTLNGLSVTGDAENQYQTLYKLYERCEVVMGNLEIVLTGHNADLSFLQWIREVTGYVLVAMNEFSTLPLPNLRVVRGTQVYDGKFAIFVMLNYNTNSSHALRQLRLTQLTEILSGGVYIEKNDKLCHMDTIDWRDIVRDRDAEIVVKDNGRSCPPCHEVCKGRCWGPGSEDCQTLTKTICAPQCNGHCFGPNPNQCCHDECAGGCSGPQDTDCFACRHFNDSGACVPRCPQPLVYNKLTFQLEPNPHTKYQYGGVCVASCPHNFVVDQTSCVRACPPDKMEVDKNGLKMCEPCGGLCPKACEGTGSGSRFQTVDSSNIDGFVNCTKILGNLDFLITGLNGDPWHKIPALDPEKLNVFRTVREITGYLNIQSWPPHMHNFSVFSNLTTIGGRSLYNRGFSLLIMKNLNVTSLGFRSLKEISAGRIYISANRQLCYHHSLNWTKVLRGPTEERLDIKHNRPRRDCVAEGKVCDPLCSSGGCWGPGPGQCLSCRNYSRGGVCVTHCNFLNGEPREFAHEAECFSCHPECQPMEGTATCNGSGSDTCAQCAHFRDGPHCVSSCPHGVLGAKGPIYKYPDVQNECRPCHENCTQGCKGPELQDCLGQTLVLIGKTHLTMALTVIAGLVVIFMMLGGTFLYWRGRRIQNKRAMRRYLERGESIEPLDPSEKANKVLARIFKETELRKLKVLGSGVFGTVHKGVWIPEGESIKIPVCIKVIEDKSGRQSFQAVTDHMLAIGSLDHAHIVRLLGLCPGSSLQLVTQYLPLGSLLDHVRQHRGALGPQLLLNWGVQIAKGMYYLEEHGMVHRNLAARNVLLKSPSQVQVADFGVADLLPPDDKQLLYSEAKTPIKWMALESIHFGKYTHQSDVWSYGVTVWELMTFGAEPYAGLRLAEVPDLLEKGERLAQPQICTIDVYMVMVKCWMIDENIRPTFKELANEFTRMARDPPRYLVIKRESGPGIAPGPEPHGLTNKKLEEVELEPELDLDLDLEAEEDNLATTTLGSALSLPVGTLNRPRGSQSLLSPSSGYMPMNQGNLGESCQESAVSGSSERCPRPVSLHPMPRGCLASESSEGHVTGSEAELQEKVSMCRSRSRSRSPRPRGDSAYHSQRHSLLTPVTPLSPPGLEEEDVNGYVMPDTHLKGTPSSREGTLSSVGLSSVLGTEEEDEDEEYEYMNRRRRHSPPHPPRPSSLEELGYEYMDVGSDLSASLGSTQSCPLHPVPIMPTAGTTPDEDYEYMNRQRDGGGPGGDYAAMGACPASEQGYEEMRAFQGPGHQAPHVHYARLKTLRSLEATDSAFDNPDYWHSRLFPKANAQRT

B1: murine 15D5 antibody (M5.15D5.2A1.1H10) (antibody, V domains shown)
VH: EFQLQQSGPELVKPGASVKISCKASGYSFTDYNMNWVKQNNGKSLEWIGGINPNYGTTVYNQKFKGKATLTVDQSSSTAYMQLVSLTSEDSAVYYCARMTTIVPFDYWGQGTTLTVSS
VL: DIQMTQTTFSLSASLGDRVTISCRASQDISNYLNWYQQKPDGTVKLLIYYTSTLHSGVPSRFSGSGSGTDYFLTIRNLEEEDIATYFCQQGYTLPWTFGGGTKLDIK
Phospho-HER3 ELISA IC50, heregulin induced HER3 phosphorylation, BT-474 cells (human HER3 receptor): 0.12 µg/mL | Phospho-HER3 ELISA IC50, heregulin induced HER3 phosphorylation, BxPC3 cells (human HER3 receptor): 0.0541 µg/mL | Phospho-HER3 ELISA IC50, heregulin induced HER3 phosphorylation, CHL-1 cells (human HER3 receptor): 0.138 µg/mL | Phospho-HER3 ELISA IC50, heregulin induced HER3 phosphorylation, MCF7 cells (human HER3 receptor): 0.0593 µg/mL | Phospho-HER3 ELISA IC50, heregulin induced HER3 phosphorylation, N87 cells (human HER3 receptor): 0.0533 µg/mL | Phospho-HER3 ELISA IC50, heregulin induced HER3 phosphorylation, SK-BR-3 cells (human HER3 receptor): 0.0191 µg/mL

B2: humanized 1D9 POTELLIGENT antibody (antibody, human IgG1, kappa, V domains shown)
VH: QVQLVQSGAEVKKPGASVKVSCKASGYTFTSYWMHWVRQAPGQGLEWMGVIDPSDGYSHYNQKFKGKVTLTVDTSISTAYMELSRLRSDDTAVYYCAGGLAGTLDYWGQGTTVTVSS
VL: DIQMTQSPSSLSASVGDRVTITCRSSQSIVHSSGNTYLQWFQQKPGKAPKLLIYKVSNRFSGVPSRFSGSGSGTDFTLTISSLQPEDFAVYYCFQGSHVPWTFGQGTKLEIKR
notes: also called humanized 1D9 H6L2 POTELLIGENT antibody; humanized POTELLIGENT antibody
Phospho-HER3 ELISA IC50, heregulin induced HER3 phosphorylation, BxPC3 cells (human HER3 receptor): 0.0056 µg/mL | Phospho-HER3 ELISA IC50, heregulin induced HER3 phosphorylation, CHL-1 cells (human HER3 receptor): 0.0282 µg/mL | Phospho-HER3 ELISA IC50, heregulin induced HER3 phosphorylation, N87 cells (human HER3 receptor): 0.0175 µg/mL | Phospho-HER3 ELISA IC50, heregulin induced HER3 phosphorylation, SK-BR-3 cells (human HER3 receptor): 0.0034 µg/mL | Kd [1]: 2.01 nM | koff [1]: 0.00223 s⁻¹ | kon [1]: 1.11e+06 M⁻¹ s⁻¹ | Kd [2]: 3.37 nM | koff [2]: 0.0011 s⁻¹ | kon [2]: 326000 M⁻¹ s⁻¹

B4: humanized 1D9 Fc disabled antibody (antibody, V domains shown)
VH: B2 VH
VL: B2 VL
notes: also called humanized 1D9 H6L2 Fc disabled antibody
Phospho-HER3 ELISA IC50, heregulin induced HER3 phosphorylation, BxPC3 cells (human HER3 receptor): 0.0107 µg/mL | Phospho-HER3 ELISA IC50, heregulin induced HER3 phosphorylation, CHL-1 cells (human HER3 receptor): 0.0399 µg/mL | Phospho-HER3 ELISA IC50, heregulin induced HER3 phosphorylation, N87 cells (human HER3 receptor): 0.0297 µg/mL | Phospho-HER3 ELISA IC50, heregulin induced HER3 phosphorylation, SK-BR-3 cells (human HER3 receptor): 0.0044 µg/mL | Kd [1]: 4.49 nM | koff [1]: 0.00122 s⁻¹ | kon [1]: 271000 M⁻¹ s⁻¹

The next lines start with the values.

Phospho-HER3 ELISA IC50, heregulin induced HER3 phosphorylation, BxPC3 cells (human HER3 receptor): 0.0116 µg/mL | Phospho-HER3 ELISA IC50, heregulin induced HER3 phosphorylation, CHL-1 cells (human HER3 receptor): 0.0365 µg/mL | Phospho-HER3 ELISA IC50, heregulin induced HER3 phosphorylation, N87 cells (human HER3 receptor): 0.0218 µg/mL | Phospho-HER3 ELISA IC50, heregulin induced HER3 phosphorylation, SK-BR-3 cells (human HER3 receptor): 0.0036 µg/mL
B3: humanized 1D9 antibody (antibody, human IgG1, kappa, V domains shown)
VH: B2 VH
VL: B2 VL

IC50, ligand (EGF, betacellulin or heregulin) induced HER3 receptor phosphorylation, SK-BR-3 cells (human HER3 receptor): ~0.003 µg/mL | Phospho-HER3 ELISA IC50, heregulin induced HER3 phosphorylation, BT-474 cells (human HER3 receptor): 0.0223 µg/mL | Phospho-HER3 ELISA IC50, heregulin induced HER3 phosphorylation, BxPC3 cells (human HER3 receptor): 0.0068 µg/mL | Phospho-HER3 ELISA IC50, heregulin induced HER3 phosphorylation, CHL-1 cells (human HER3 receptor): 0.0406 µg/mL | Phospho-HER3 ELISA IC50, heregulin induced HER3 phosphorylation, MCF7 cells (human HER3 receptor): 0.0104 µg/mL | Phospho-HER3 ELISA IC50, heregulin induced HER3 phosphorylation, N87 cells (human HER3 receptor): 0.0204 µg/mL | Phospho-HER3 ELISA IC50, heregulin induced HER3 phosphorylation, SK-BR-3 cells (human HER3 receptor): 0.0032 µg/mL
B5: murine 1D9 antibody (M5.1D9.1F5) (antibody, V domains shown)
VH: QVQLQQPGAELVRPGTSVKLSCKASGYTFTSYWMHWVKQRPGQGLEWIGVIDPSDGYSHYNQKFKGKATLTVDTSSSTAYMQLSSLTSEDSAVYYCAGGLAGTLDYWGQGTTLTVSS
VL: DVLMTQTPLSLPVSLGDQASISCRSSQSIVHSSGNTYLQWFLQKPGQSPKLLISKVSNRFSGVPDRFSGSGSGTDFTLRISRVEAEDLGLYYCFQGSHVPWTFGGGTKLEIK
